The text below walks through data of patent US20250115656A1 (Stanford University, published 2025).

The data set deals with the molecule itself. Nature of the data set: cryo-EM in detergent; HS-AFM in lipid bilayer. The procedure:
Briefly, for reconstituted lipids, we used a mixture of phospholipids, asolectin from soybean (Sigma-Aldrich, No. 11145). Asolectin (120 μg) was dissolved in chloroform and then evaporated under N2 gas to completely remove the solvent. Then, the lipids were suspended in 50 μL buffer A (20 mM HEPES-KOH pH 7.4, 100 mM NaCl, and 4% DDM) and sonicated for ˜1 min with a tip-sonicator. Next, dissolved membrane proteins (1 nmol) and MSP (50 μL, 1 mg/mL) (MSP1E3D1, Sigma-Aldrich, No. M7074) were added to the lipid suspension and mixed for ˜1 h while rotating in the dark at 4° C. Finally, we added 60 mg Bio-beads SM-2 (Bio-Rad, Hercules, CA, USA, No. 1523920) and dialyzed the samples in detergent overnight at 4° C. According to the manufacturer's protocol, nanodisc samples should be fractionated on a column to purify the nanodiscs based on size (˜10 nm in diameter).
A homemade HS-AFM operated in tapping mode was used (Shibata et al., 2017, 2018). An optical beam deflection detector detected the cantilever (Olympus, Tokyo, Japan: BL-AC10DS-A2) deflection using an infrared (IR) laser at 780 nm and 0.7 mW. The IR beam was focused onto the back side of the cantilever covered with a gold film through a ×60 objective lens (Nikon, Tokyo, Japan: CFI S Plan Fluor ELWD 60×). The reflected IR beam was detected by a two-segmented PIN photodiode. […]

B1: Wild-type ChRmine (M1-R304) (other)
chain: MAHAPGTDQMFYVGTMDGWYLDTKLNSVAIGAHWSCFIVLTITTFYLGYESWTSRGPSKRTSFYAGYQEEQNLALFVNFFAMLSYFGKIVADTLGHNFGDVGPFIIGFGNYRYADYMLTCPMLVYDLLYQLRAPYRVSCSAIIFAILMSGVLAEFYAEGDPRLRNGAYAWYGFGCFWFIFAYSIVMSIVAKQYSRLAQLAQDTGAEHSLHVLKFAVFTFSMLWILFPLVWAICPRGFGWIDDNWTEVAHCVCDIVAKSCYGFALARFRKTYDEELFRLLEQLGHDEDEFQKLELDMRLSSNGER
modifications: all-trans retinal covalently linked at K257 (Schiff base)
notes: Pump-like cation-conducting channelrhodopsin, purified from Sf9 cells in GDN/CHS detergent; It forms a homotrimer; The model covers residues 10-279; also called WT ChRmine; ChRmine WT
As to B1, the binding result is reported as “binds”.
